Data: patent publication US20210130452A1 (Merck KGaA, published 2021)
Substitutions are numbered along the chain they refer to. Numbers in names are those of the source. Read-outs that look alike come from different tables or passages of the source.

Assays:
[1] = target: T1, human IL-17A (human, UniProt Q16552 24-155); assay: competition ELISA IL17A-RA
T1 construct: secreted form (GenBank U32659) expressed in Hek293 with C-terminal 6-His; also called hIL-17A; IL-17A-6HIS
T1 sequence (Q16552 other isoform, or with tags, fused parts or gaps): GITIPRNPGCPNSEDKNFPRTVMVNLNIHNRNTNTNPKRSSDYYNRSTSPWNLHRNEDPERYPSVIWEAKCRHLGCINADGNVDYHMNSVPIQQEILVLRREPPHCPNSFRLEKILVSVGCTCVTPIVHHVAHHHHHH
Description: (§1) To this end, IL-17RA, respectively IL-17RC was coated at a concentration of 1 μg/ml in PBS.

[2] = target: T1, human IL-17A; assay: cell-based or functional assay
[3] = target: T2, human IL-17F (human, UniProt Q96PD4 31-163); assay: cell-based or functional assay
T2 sequence: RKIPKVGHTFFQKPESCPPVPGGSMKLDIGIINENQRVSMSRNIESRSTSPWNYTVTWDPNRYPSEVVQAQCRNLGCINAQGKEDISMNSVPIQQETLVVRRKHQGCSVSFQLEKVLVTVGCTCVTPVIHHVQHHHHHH

[4] = target: T2, human IL-17F; assay: KinExA, 100 pM Nanobody
Description: The affinity of a limited set of formatted Nanobodies was determined using the KinExA.

[5] = target: T1, human IL-17A; assay: KinExA, 500 pM Nanobody
[6] = target: T2, human IL-17F; assay: KinExA, 500 pM Nanobody
[7] = target: T1, human IL-17A; assay: SPR, IL-17A-Nanobody complex over captured IL-17RA
Excerpt: (§2) The receptor (IL-17RA or IL-17RC) was captured via its human Fc-tail by an anti-human IgG-Fc antibody coated on the chip.

[8] = target: T2, human IL-17F; assay: competition ELISA IL17F-RC
Description: as §1

[9] = target: T3, mouse IL-17A (mouse, UniProt Q62386 26-158); assay: ELISA, coated IL-17A
T3 sequence (looked up): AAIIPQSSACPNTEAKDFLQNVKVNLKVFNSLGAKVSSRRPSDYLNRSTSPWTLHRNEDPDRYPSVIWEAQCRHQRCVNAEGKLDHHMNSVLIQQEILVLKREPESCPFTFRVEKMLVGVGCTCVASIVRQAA
Description: (§3) Binding of a selected panel of anti-IL-17 Nanobodies to IL-17 of other species was assessed using a binding ELISA. […] HRP (horseradish peroxidase) conjugated anti-myc (Serotec, MCA 2200P) was used for detection using esTMB as substrate.

[10] = target: T1, human IL-17A; assay: ELISA, coated IL-17A
Description: as §3

[11] = target: T4, rat IL-17A (rat, UniProt Q61453 18-150, limits assumed); assay: ELISA, coated IL-17A
T4 sequence (looked up): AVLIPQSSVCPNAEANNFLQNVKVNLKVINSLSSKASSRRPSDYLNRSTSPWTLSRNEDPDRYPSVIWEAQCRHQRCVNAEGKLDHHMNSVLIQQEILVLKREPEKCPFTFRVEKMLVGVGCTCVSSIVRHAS
Description: as §3

[12] = target: guinea pig IL-17A (guinea pig); assay: ELISA, coated IL-17A
Description: as §3

[13] = target: T5, marmoset IL-17A (marmoset, IL-17A is a disulfide-linked homodimer. One chain is given.); assay: ELISA, coated IL-17A
T5 chain: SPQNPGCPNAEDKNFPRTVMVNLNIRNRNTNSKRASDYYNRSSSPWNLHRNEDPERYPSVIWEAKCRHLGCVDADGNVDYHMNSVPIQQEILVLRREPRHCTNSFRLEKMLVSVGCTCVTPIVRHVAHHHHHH
Description: as §3

[14] = target: T2, human IL-17F; assay: SPR, IL-17F-Nanobody complex over captured IL-17RC
Excerpt: as §2

[15] = target: T6, rat IL-17F (rat, UniProt Q5BJ95 29-161); assay: ELISA, coated IL-17F;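 note: binding ELISA on coated antigen from various species, with bound Nanobodies revealed by an HRP-linked anti-myc antibody and esTMB substrate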
T6 sequence (looked up): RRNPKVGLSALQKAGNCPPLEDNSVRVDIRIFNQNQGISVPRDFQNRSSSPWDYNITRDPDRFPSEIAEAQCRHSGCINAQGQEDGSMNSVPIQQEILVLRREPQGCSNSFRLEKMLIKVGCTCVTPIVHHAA
Description: as §3

[16] = target: T2, human IL-17F; assay: ELISA, coated IL-17F;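 note: binding ELISA on coated antigen from various species, with bound Nanobodies revealed by an HRP-linked anti-myc antibody and esTMB substrate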
Description: as §3

[17] = target: T7, marmoset IL-17F (marmoset, UniProt A6N6I9 31-163); assay: ELISA, coated IL-17F;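 note: binding ELISA on coated antigen from various species, with bound Nanobodies revealed by an HRP-linked anti-myc antibody and esTMB substrate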
T7 sequence (looked up): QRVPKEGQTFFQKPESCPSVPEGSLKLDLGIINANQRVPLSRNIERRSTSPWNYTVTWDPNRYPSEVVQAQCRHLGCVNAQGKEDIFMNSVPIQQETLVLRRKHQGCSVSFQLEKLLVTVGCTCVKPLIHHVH
Description: as §3

[18] = target: T8, mouse IL-17F (mouse, UniProt Q7TNI7 29-161); assay: ELISA, coated IL-17F;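 note: binding ELISA on coated antigen from various species, with bound Nanobodies revealed by an HRP-linked anti-myc antibody and esTMB substrate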
T8 sequence (looked up): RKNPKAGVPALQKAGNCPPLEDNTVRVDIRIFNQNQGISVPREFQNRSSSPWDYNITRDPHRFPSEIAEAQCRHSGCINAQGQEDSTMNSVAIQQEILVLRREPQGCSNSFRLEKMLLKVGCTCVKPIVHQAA
Description: as §3

[19] = target: T9, human IL-17F (human, UniProt Q96PD4 31-163); assay: AlphaScreen hIL-17F-IL-17RC; vs IL17MS13E02
T9 construct: made in Hek293 cells (GenBank AF384857); also called hIL-17F; hIL17F
T9 sequence: T2 sequence

[20] = target: T10, human IL-17A (human, UniProt Q16552 24-155); assay: AlphaScreen hIL-17A-IL-17RA; vs IL17MS13B03
T10 construct: secreted form made in Hek293 cells (GenBank U32659); also called hIL-17A; hIL17A
T10 sequence (Q16552 other isoform, or with tags, fused parts or gaps): as the sequence (Q16552 other isoform, or with tags, fused parts or gaps) above

[21] = target: T9, human IL-17F; assay: AlphaScreen hIL-17F-IL-17RC; vs IL17MS13B03
[22] = target: T9, human IL-17F; assay: cell-based or functional assay; remark: listed apart in the source
[23] = target: T10, human IL-17A; assay: cell-based or functional assay; remark: listed apart in the source
[24] = target: T11, human IL-17A/F heterodimer (human, UniProt Q16552 24-155; Q96PD4 31-163, limits assumed); assay: cell-based or functional assay
[25] = target: T12, Cynomolgus monkey IL-17F (Cynomolgus monkey, UniProt G7P4V0 31-163); assay: cell-based or functional assay
T12 sequence: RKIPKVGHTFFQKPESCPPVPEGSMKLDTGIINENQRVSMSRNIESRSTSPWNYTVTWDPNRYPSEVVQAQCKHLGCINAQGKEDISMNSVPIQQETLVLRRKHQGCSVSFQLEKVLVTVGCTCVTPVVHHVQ

[26] = target: T9, human IL-17F; assay: SPR (Biacore) off-rate
[27] = target: T10, human IL-17A; assay: SPR (Biacore) off-rate
[28] = target: T13, Cynomolgus monkey IL-17A (Cynomolgus monkey, UniProt A0A2K5TTB0 24-155); assay: SPR (Biacore) off-rate
T13 construct: also called cyno IL-17A; cIL-17A

[29] = target: T11, human IL-17A/F heterodimer; assay: SPR (Biacore) off-rate
[30] = target: T12, Cynomolgus monkey IL-17F; assay: SPR (Biacore) off-rate
[31] = target: T10, human IL-17A; assay: cell-based or functional assay; remark: listed apart in the source
[32] = target: T11, human IL-17A/F heterodimer; assay: cell-based or functional assay; remark: listed apart in the source
[33] = target: T10, human IL-17A; assay: competition ELISA IL-17A-IL-17RA
[34] = target: T10, human IL-17A; assay: AlphaScreen IL-17A-IL-17RA (average)
[35] = target: T10, human IL-17A; assay: SPR (Biacore) off-rate; remark: listed apart in the source
[36] = target: T13, Cynomolgus monkey IL-17A; assay: SPR (Biacore) off-rate; remark: listed apart in the source
[37] = target: T11, human IL-17A/F heterodimer; assay: SPR (Biacore) off-rate; remark: listed apart in the source

T13 sequence (A0A2K5TTB0 entry or part of it): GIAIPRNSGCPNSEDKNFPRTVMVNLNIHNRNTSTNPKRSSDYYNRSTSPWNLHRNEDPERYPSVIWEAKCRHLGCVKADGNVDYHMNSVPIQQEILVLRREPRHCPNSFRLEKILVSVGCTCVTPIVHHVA
T11 sequence (Q16552 24-155 limits assumed, one chain of several): as the sequence (A0A2K5TTB0 entry or part of it) above, with A3T, S8P, S34N, V77I, K78N, R104P counted along it

B1: SH-Fc-(GS)2-13B03 (Fc fusion, not shown: a dimerising Fc or GST; small tags and cut ends)
chain: EVQLVESGGGSVQAGDSLRLSCAASGRANSINWFGWFRQTPGKEREFVAGIRWSDAYTEYANSVKGRFTISRDNAKNTVDLQMDSLKPEDTAVYYCVLDLSTVRYWGQGTQVTVSS
notes: also called MSB0010618; SH-(GS)2-Fc-13B03
IC50 [1]: 44 pM
Emax, hIL-17A induced IL-6, HT-1080, without HSA [2]: 100%
IC50, hIL-17A induced IL-6, HT-1080, without HSA [2]: 370 pM
IC50, hIL-17F induced IL-6, HT-1080, without HSA [3]: 5700 pM
Kd [4]: 145 pM

B2: 13B03 (VHH)
VHH: B1 chain
notes: Class 4; also called IL17MS13B03
Kd [5]: 22.5 pM
Kd [6]: 4910 pM
% Biacore binding (IL-17A-NB)-IL-17RA [7]: -2.24%
IC50 [8]: 91600 pM
IC50 [1]: 121 pM
OD [9]: -0.001 OD
OD [10]: 1.95 OD
OD [11]: 0.004 OD
OD [12]: 0.004 OD
OD [13]: 1.94 OD
% Biacore binding (IL-17F-NB)-IL-17RC [14]: 15.7%
OD [15]: 0.0085 OD
OD [16]: 1.66 OD
OD [17]: 1.33 OD
OD [18]: -0.0005 OD

B3: IL17MS3071 (VHH)
VHH: EVQLVESGGGLVQPGGSLRLSCAASGRTYDALGWLRQAPGKEREFVAAISGSGDDTYYADSVKGRFTISRDNSKNTLYLQMNSLRPEDTAVYYCATRRGLYYVWDANDYENWGQGTLVTVSS
notes: variant of IL17MS13E02; Kabat numbering
IC50 fold difference vs WT [19]: 0.3 fold

B4: 13E02 (VHH)
VHH: B3 VHH with P14A, L32M, R70K, S73A, K74G, N75I, L77M, R85K, A106S, L117Q
notes: Class 4; also called IL17MS13E02
Kd [5]: 35.9 pM
Kd [6]: 3620 pM
% Biacore binding (IL-17A-NB)-IL-17RA [7]: -1.04%
IC50 [8]: 3020 pM
IC50 [1]: 420 pM
OD [9]: -0.001 OD
OD [10]: 1.79 OD
OD [11]: 0.003 OD
OD [12]: 0.006 OD
OD [13]: 1.85 OD
% Biacore binding (IL-17F-NB)-IL-17RC [14]: 7.17%
OD [15]: 0.0255 OD
OD [16]: 1.1 OD
OD [17]: 0.248 OD
OD [18]: 0.0155 OD

B5: IL17MS3068 (VHH)
VHH: EVQLVESGGGLVQPGGSLRLSCAASGRASSINWMGWFRQAPGKEREFVAGIRWSDAYTEYADSVKGRFTISRDNSKNTVYLQMNSLRPEDTAVYYCVLDLSTVRYWGQGTLVTVSS
notes: variant of IL17MS13B03; Kabat numbering
IC50 fold difference compared to WT [20]: 1.2 fold
IC50 fold difference compared to WT [21]: 0.2 fold

B6: IL17MS3067 (VHH)
VHH: B5 VHH with E1D
notes: as for B5
IC50 fold difference compared to WT [20]: 1.3 fold
IC50 cell based assay hIL17F [22]: 35000 pM
IC50 cell based assay hIL17A [23]: 700 pM
IC50 cell based assay hIL17A/F [24]: 1800 pM
IC50 cell based assay cyno IL17F [25]: 13000 pM
koff [26]: 0.00138 s⁻¹
koff [27]: 0.000133 s⁻¹
koff [28]: 0.000126 s⁻¹
koff [29]: 0.000183 s⁻¹
koff [30]: 0.00166 s⁻¹
IC50 fold difference compared to WT [21]: 0.2 fold

B7: 16A04 (VHH)
VHH: EVQLVESGGGLVQAGGSLRLSCAASGRTFSSYVVGWFRQAPGKEREFIGAISGSGDSIYYAVSEKDRFTISRDNGKNTLYLQMSSLKAEDTAVYYCTADQEFGYLRFGRSEYWGQGTQVTVSS
notes: Class 3; also called IL17MS16A04
OD [10]: 0.043 OD
OD [12]: 0.008 OD
OD [13]: 0.019 OD
% Biacore binding (IL-17F-NB)-IL-17RC [14]: 4.84%
OD [15]: 0.0015 OD
OD [16]: 1.74 OD
OD [17]: 1.64 OD
OD [18]: -0.0015 OD
Kd [4]: 19.4 pM

B8: IL17MS3060 (VHH)
VHH: DVQLVESGGGLVQPGGSLRLSCTASGTIVNIHVMGWYRQAPGKQRELVALIFSGGSADYADSVKGRFTISRDNSKNTVYLQMNSLRPEDTAVYYCAAEIGYYSGGTYYSSEAHWGQGTLVTVSS
notes: variant of IL17MS04G01; basic = A14P, A74S, E81Q, K83R, Q108L
IC50 cell based assay hIL-17A (IL-6, HT-1080 cells) [31]: 930 pM
IC50 cell based assay hIL-17A/F (IL-6, HT-1080 cells) [32]: 5500 pM
IC50 [33]: 181 pM
IC50 [34]: 81 pM
koff [35]: 0.00015 s⁻¹
koff [36]: 0.000154 s⁻¹
koff [37]: 0.000209 s⁻¹

B9: IL17MS04G01 (VHH)
VHH: B8 VHH with D1E, P14A, L18Q, S74A, Q81E, R86K, P87A, L119Q
notes: Class 2 Nanobody, wild type; also called WT
IC50 cell based assay hIL-17A (IL-6, HT-1080 cells) [31]: 710 pM
IC50 cell based assay hIL-17A/F (IL-6, HT-1080 cells) [32]: 7550 pM
IC50 [33]: 122 pM
IC50 [34]: 93 pM
koff [35]: 0.000116 s⁻¹
koff [36]: 0.00032 s⁻¹
koff [37]: 0.00017 to 0.00023 s⁻¹
